14 sequences from the supplement of paper PMC10201428 can be followed below.

± gives the standard deviation of the averaged measurements.

The subject of data set [1] is VchCAST RNA-guided transposition machinery (E. coli BL21(DE3) host, lacZ target). Kind of data set: relative integration efficiency (T-RL orientation) vs wild-type transposon end (log2 (normalized fold change)); transposon end mutated: right end (5 bp flank + 75 bp right end); higher = more efficient transposition. In a few lines:
(§1)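 Relative integration efficiency is a fold change of output over input barcode abundance, normalised to reference barcodes and log-transformed. Input plasmids and genomic integration junctions were PCR-amplified and Illumina-sequenced from E. coli BL21(DE3) co-transformed with a T7-driven effector plasmid and pUC57 donor pools of 1549 left-end or 1849 right-end transposon variants. Plating was done with 0.1 mM IPTG at 37°C for 18 h, with two biological output replicates and four reference barcodes.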

Data set [2] has the same test system. In words: relative integration efficiency (T-LR orientation) vs wild-type transposon end (log2 (normalized fold change)); transposon end mutated: right end (5 bp flank + 75 bp right end); higher = more efficient transposition. In a few lines: as §1

Regarding “ACATTTGTTGATACAACCATTAAATGATAATTACACCCATATATTGATAATTATCACACCCAATTTAACTATAACGCTCTGATCATAGTCAGACCAACATTGCTACGACCCGTATTCGCACCGACAC”, the “relative integration efficiency (log2)” value is -0.809 ± 0.018 in data set [1] and 2.04 ± 0.065 in data set [2].
The matching figures for “ACATTTGTTGATACAACCATTAAATGATAATTACACCCATTAATTGATAATTATCACACCCATTAATTGATATTGCCTCTGATCATAGTCAGACCAACATTGCTACGACCCGTATTCGCACCGACAC”: -0.515 ± 0.021 and -0.0993 ± 0.43.
In the same order, the values of “ACATTTGTTGATACAACCATTAAATGATAATTCCACCAATAAATTGATAATTATCACACCCAATTTAACTATAACGCTCTGATCATAGTCAGACCAACATTGCTACGACCCGTATTCGCACCGACAC” are -1.51 ± 0.17 and 1.37 ± 0.042.
In the same order, the values of “ACATTTGTTGATACAACCATTAAATGATAATTCCACCCAAAAATTGATAATTATCACACCCAATTTAACTATAACGCTCTGATCATAGTCAGACCAACATTGCTACGACCCGTATTCGCACCGACAC” are -0.813 ± 0.13 and 2.42 ± 0.24.
In the case of “ACATTTGTTGATACAACCATTAAATGATAATTCCACCCAAATATTGATAATTATCACACCCAATTTAACTATAACGCTCTGATCATAGTCAGACCAACATTGCTACGACCCGTATTCGCACCGACAC”, the entries for the “relative integration efficiency (log2)” value in data set [1] and in data set [2] were -1.51 ± 0.05 and 1.47 ± 0.08, respectively.
With “ACATTTGTTGATACAACCATTAAATGATAATTCCACCCAGAAATTGATAATTATCACACCCAATTTAACTATAACGCTCTGATCATAGTCAGACCAACATTGCTACGACCCGTATTCGCACCGACAC”, the results for the “relative integration efficiency (log2)” value in data set [1] and in data set [2] were -3.25 ± 0.24 and -0.278 ± 0.36, respectively.
In the same order, the values of “ACATTTGTTGATACAACCATTAAATGATAATTCCACCCATAAATTGATAATTATCACACCCAATTTAACTATAACGCTCTGATCATAGTCAGACCAACATTGCTACGACCCGTATTCGCACCGACAC” are -1.06 ± 0.17 and 2.34 ± 0.17.
On to “ACATTTGTTGATACAACCATTAAATGATAATTCCACCCATAACTTGATAATTATCACACCCAATTTAACTATAACGCTCTGATCATAGTCAGACCAACATTGCTACGACCCGTATTCGCACCGACAC”, for which the entries for the “relative integration efficiency (log2)” value in data set [1] and in data set [2] were -1.14 ± 0.15 and 1.93 ± 0.17, respectively.
In the same order, the values of “ACATTTGTTGATACAACCATTAAATGATAATTCCACCCATAATTTGATAATTATCACACCCAATTTAACTATAACGCTCTGATCATAGTCAGACCAACATTGCTACGACCCGTATTCGCACCGACAC” are -0.743 ± 0.14 and 2.52 ± 0.061.
On to “ACATTTGTTGATACAACCATTAAATGATAATTCCACCCATACATTGATAATTATCACACCCAATTTAACTATAACGCTCTGATCATAGTCAGACCAACATTGCTACGACCCGTATTCGCACCGACAC”, for which the “relative integration efficiency (log2)” value is -2.63 ± 0.34 in data set [1] and 0.395 ± 0.29 in data set [2].
On to “ACATTTGTTGATACAACCATTAAATGATAATTCCACCCATATATTGATAATTATCACACCCAATTTAACTATAACGCTCTGATCATAGTCAGACCAACATTGCTACGACCCGTATTCGCACCGACAC”, for which the “relative integration efficiency (log2)” value in data set [1] was -1.24 ± 0.15; in data set [2], 2.16 ± 0.074.
The matching figures for “ACATTTGTTGATACAACCATTAAATGATAATTCCACCCATCAATTGATAATTATCACACCCAATTTAACTATAACGCTCTGATCATAGTCAGACCAACATTGCTACGACCCGTATTCGCACCGACAC”: -1.79 ± 0.23 and 1.01 ± 0.31.
“ACATTTGTTGATACAACCATTAAATGATAATTCCACCCCTAAATTGATAATTATCACACCCAATTTAACTATAACGCTCTGATCATAGTCAGACCAACATTGCTACGACCCGTATTCGCACCGACAC”: the “relative integration efficiency (log2)” value in data set [1] is -2.75 ± 0.27; in data set [2], 0.256 ± 0.39.
The matching figures for “ACATTTGTTGATACAACCATTAAATGATAATTCCACCCTTAAATTGATAATTATCACACCCAATTTAACTATAACGCTCTGATCATAGTCAGACCAACATTGCTACGACCCGTATTCGCACCGACAC”: -2.08 ± 0.36 and 0.973 ± 0.22.
